From article PMC7921117, “Structural characterization of the microbial enzyme urocanate reductase mediating imidazole propionate production” (Nature Communications, 2021)

Biological target: the molecule itself
Experiment: elution peak in chromatography during purification; purification of His-tagged UrdA′; the sentence follows the HisTrap HP imidazole gradient; one large asymmetrical peak

B1: two-domain urocanate reductase UrdA′ (clamp domain and FAD-binding domain) from Shewanella oneidensis MR-1 (domain or fragment, Shewanella oneidensis (strain MR-1), UniProt Q8CVD0 130-582, looked up)
chain: EYTYDVVIIGSGGAGFSAGLEAIAAGRSAVIIEKMPIIGGNSLISGAEMNVAGSWVQKNMGITDSKELFISDTLKGGDFKGDPEMVKTMVDNAVGAAEWLRDYVKVEFYPDQLFQFGGHSVKRALIPKGHTGAEVISKFSIKADEVGLPIHTNTKAEKLIQDQTGRIVGVEAAHNGKTITYHAKRGVVIATGGFSSNMEMRKKYNPELDERYGSTGHAGGTGDGIVMAEKIHAAAKNMGYIQSYPICSPTSGAIALIADSRFFGAVLINQKGERFVEELERRDVISHAILAQPGRYTYVLWNQDIENVAHTVEMHQGELKEFTKDGLMYKVDTLEEAAKVFNIPEDKLLSTIKDVNHYAATGKDEAFNHRSGLVDLSKGPYWILKATPSVHHTMGGLVVDTRTRVLDEQGKVIPGLFAAGEVTGLTHGTNRLGGNAYTDIIVYGRIAGQEAAK
notes: Synthetic gene in pET-24a(+); The main peak fraction, mostly monomeric, was used for further experiments; also called UrdA′wt; Two-domain WT; source: E. coli TUNER (DE3), purified (HisTrap HP; size-exclusion chromatography before crystallization); not shown: 6xHis, C-terminal, kept
  binding result: binds
